Measurements from doi:10.1101/2025.08.13.669967, “Cryo-EM protein structure without purification” (bioRxiv, 2025).

Molecular target: the molecule itself
Experiment: native gel or EMSA; Native PAGE of the 25 µl PURE cell-free expression reaction with FluoroTect GreenLys fluorescent detection, compared to a no plasmid DNA control

B1: Arabidopsis thaliana Pyridoxal 5'-phosphate synthase-like subunit PDX1.2 (natural protein, UniProt Q9ZNR6 1-314, looked up)
chain: MADQAMTDQDQGAVTLYSGTAITDAKKNHPFSVKVGLAQVLRGGAIVEVSSVNQAKLAESAGACSVIVSDPVRSRGGVRRMPDPVLIKEVKRAVSVPVMARARVGHFVEAQILESLAVDYIDESEIISVADDDHFINKHNFRSPFICGCRDTGEALRRIREGAAMIRIQGDLTATGNIAETVKNVRSLMGEVRVLNNMDDDEVFTFAKKISAPYDLVAQTKQMGRVPVVQFASGGITTPADAALMMQLGCDGVFVGSEVFDGPDPFKKLRSIVQAVQHYNDPHVLAEMSSGLENAMESLNVRGDRIQDFGQGSV
modifications: translation mixture supplemented with FluoroTect GreenLys reagent (fluorescent detection)
notes: Pyridoxal 5'-phosphate synthase-like subunit PDX1.2 of Arabidopsis thaliana, Uniprot Q9ZNR6; synthetic gene (Genscript) in the pT7-DHFR Control plasmid in place of DHFR (NdeI/NotI); source: PURE (PureExpress In Vitro Protein Synthesis kit, New England Biolabs) cell-free expression, 25 µl reaction; in crude lysate or after small-scale clean-up (spin filter, benzonase, reverse His-purification); …
stoichiometry N: 12
